Results as given in publication PMC13557712, “Nim1-related kinases regulate septin organization and cytokinesis by modulating Hof1 at the cell division site” (eLife, 2026).

Target: T1, GST-Hof1-N-terminus (1–350 aa) (S. cerevisiae, UniProt Q05080 1-350)
T1 construct: Hof1, S. cerevisiae, N-terminal fragment with the F-BAR domain, residues 1-350, amplified from genomic DNA and cloned into pGEX-5X1; also called GST-Hof1^F-BAR; GST-Hof1^(N (1–350)); source: E. coli BL21-DE3, purified on glutathione Sepharose 4B and kept on the resin; not shown: GST, N-terminal, kept
T1 sequence (looked up): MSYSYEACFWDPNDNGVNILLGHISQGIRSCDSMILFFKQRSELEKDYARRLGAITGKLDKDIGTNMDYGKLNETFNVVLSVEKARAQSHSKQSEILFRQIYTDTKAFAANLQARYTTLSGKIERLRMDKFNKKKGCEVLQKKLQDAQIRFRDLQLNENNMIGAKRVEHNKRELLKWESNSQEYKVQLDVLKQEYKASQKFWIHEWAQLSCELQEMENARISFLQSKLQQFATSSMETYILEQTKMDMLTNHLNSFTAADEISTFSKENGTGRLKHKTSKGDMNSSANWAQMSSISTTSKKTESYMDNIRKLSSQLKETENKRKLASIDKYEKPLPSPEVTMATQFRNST
Experiment: pull-down; GST-Hof1 (1-350) (~3 µg) on glutathione beads mixed with ~1 µg 6His-bdSUMO-Gin4-KA1; PBS, 0.2% NP-40, 1 hr at 4°C; washed with PBS, 1% NP-40; western blot with anti-His and anti-GST
Details: both partners purified

binding result: binds
B1: 6His-bdSUMO-Gin4-KA1 (1003–1142 aa) (domain or fragment, S. cerevisiae, UniProt Q12263 1003-1142, looked up)
chain: GSQAKDHSKDHLKEHKQDKNTAIGNGSFFRKFSKSSDKTMELYAKISAKQLFNGLEKLLRGWTQYGLKNIKSHPNNLTLTGKLSSDNIFSLRSTLFEVNIYPRGKMSVVQFKKVSGSFKAVKKLVNEVENVLNKEGVLQK
notes: also called 6xHis-bdSUMO-Gin4^KA1; source: E. coli BL21-DE3, purified (Ni-NTA, buffer exchange); not shown: His6, N-terminal, kept; bdSUMO, N-terminal, kept
